We go through 1 substance from EP1780277A1.

Some results are limits rather than exact numbers.

The experiment concerns the target intact IFNAR1 from human cells (human) (UniProt P17181). Description: cell-based or functional assay.
Chain of UniProt P17181 (P17181 28-557): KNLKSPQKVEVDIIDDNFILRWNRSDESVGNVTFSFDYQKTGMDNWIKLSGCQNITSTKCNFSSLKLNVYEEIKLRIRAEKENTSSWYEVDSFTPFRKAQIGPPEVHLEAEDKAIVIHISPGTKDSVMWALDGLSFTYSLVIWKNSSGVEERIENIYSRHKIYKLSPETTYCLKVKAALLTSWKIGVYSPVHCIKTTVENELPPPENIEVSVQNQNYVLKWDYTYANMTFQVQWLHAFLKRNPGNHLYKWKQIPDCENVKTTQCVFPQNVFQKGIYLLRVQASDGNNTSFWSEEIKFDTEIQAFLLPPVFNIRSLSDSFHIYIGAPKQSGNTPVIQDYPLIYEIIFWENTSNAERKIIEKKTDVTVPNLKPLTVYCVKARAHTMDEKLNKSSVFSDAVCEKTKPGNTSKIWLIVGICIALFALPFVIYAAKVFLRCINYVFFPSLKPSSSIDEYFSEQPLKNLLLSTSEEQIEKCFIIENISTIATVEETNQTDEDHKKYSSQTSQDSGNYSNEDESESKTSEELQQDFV

“IR1B4/PRMT protein of human U266S cells (from UniProt Q99873 11-371)” returned a growth inhibitory effect of IFN-β on myeloma cells (Alamar Blue), with antisense-1 oligonucleotide against IR1B4 of under 5 fold.
